What was measured:
[1] = molecular target: VsCoV-a7 RBD-human IgG Fc fusion (VsCoV-a7 (bat MERSr-CoV from Vespertilio sinensis, Japan)); assay: BLI
[2] = molecular target: HsItaly2011 RBD-human IgG Fc fusion (HsItaly2011 (bat MERSr-CoV from Hypsugo savii, Italy)); assay: BLI

Substance | Kd [1] [nM] | Kd [2] [nM]
soluble dimeric E.fus ACE2 ectodomain (domain or fragment) | 816 | –
soluble dimeric R.nor ACE2 ectodomain (from UniProt Q5EGZ1 18-740) (domain or fragment) | – | 121

From article PMC11870458
